In US20130280162A1 one finds IC50, inhibition of 293/uPAR cell adhesion to VN (RTCA impedance, 1 h after addition) and maximal inhibition of 293/uPAR cell adhesion to VN data, which are given here for 2 molecules.

This assay concerns the target human uPAR on 293/uPAR cells (human) (UniProt Q03405). In words: cell-based or functional assay.

human uPAR on 293/uPAR cells (human), sequence (Q03405 23-305): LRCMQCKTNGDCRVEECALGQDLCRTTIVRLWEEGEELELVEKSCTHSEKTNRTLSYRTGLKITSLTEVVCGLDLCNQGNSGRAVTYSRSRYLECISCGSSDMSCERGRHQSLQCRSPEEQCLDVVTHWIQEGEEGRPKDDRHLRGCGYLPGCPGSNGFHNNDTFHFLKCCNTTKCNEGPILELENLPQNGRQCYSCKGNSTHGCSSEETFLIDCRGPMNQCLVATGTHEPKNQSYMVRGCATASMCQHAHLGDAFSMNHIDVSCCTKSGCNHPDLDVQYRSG

B1: SMB-GFD/mFc (disulphide-linked homodimer) (Fc fusion)
chain: DQESCKGRCTEGFNVDKKCQCDELCSYYQSCCTDYTAECKPGGGGSGGGGSGGGGPSNCDCLNGGTCVSNKYFSNIHWCNCPKKFGGQHCEIDKSKGSGLEAGAGPRDCGCKPCICTVPEVSSVFIFPPKPKDVLTITLTPKVTCVVVDISKDDPEVQFSWFVDDVEVHTAQTKPREEQFNSTFRSVSELPIMHQDWLNGKEFKCRVNSAAFPAPIEKTISKTKGRPKAPQVYTIPPPKEQMAKDKVSLTCMITDFFPEDITVEWQWNGQPAENYKNTQPIMDTDGSYFVYSKLNVQKSNWEAGNTFTCSVLHEGLHNHHTEKSLSHSPGK
Turning to B1, the IC50, inhibition of 293/uPAR cell adhesion to VN (RTCA impedance, 1 h after addition) came to 6.3 nM and the maximal inhibition of 293/uPAR cell adhesion to VN stood at 60%.

B2: GFD-SMB/mFc (disulphide-linked homodimer) (Fc fusion)
chain: SNELHQVPSNCDCLNGGTCVSNKYFSNIHWCNCPKKFGGQHCEIDKSKTGGGGSGGGGSGGGGQESCKGRCTEGFNVDKKCQCDELCSYYQSCCTDYTAECKPGSGLEAGAGPRDCGCKPCICTVPEVSSVFIFPPKPKDVLTITLTPKVTCVVVDISKDDPEVQFSWFVDDVEVHTAQTKPREEQFNSTFRSVSELPIMHQDWLNGKEFKCRVNSAAFPAPIEKTISKTKGRPKAPQVYTIPPPKEQMAKDKVSLTCMITDFFPEDITVEWQWNGQPAENYKNTQPIMDTDGSYFVYSKLNVQKSNWEAGNTFTCSVLHEGLHNHHTEKSLSHSPGK
Molecule B2 showed an IC50, inhibition of 293/uPAR cell adhesion to VN (RTCA impedance, 1 h after addition) of 20 nM and a maximal inhibition of 293/uPAR cell adhesion to VN of 60%.
